Laboratory results reported in US20220202901A1, “PEPTIDES IN COMBINATION WITH IMMUNE CHECKPOINT INHIBITORS FOR USE IN TREATMENT OF CANCER” (WNTRESEARCH AB, priority 2019, published 2022).

Legend:
[1] = tested on: SKBR3 cells; experiment: Functional immune response assay: PBMC cytotoxicity against SKBR3 cells; format: cell-based; details: SKBR3, relative to vehicle control
Method: (§1) Purpose: Examining the cytotoxic effect of Foxy-5 and an anti-PD-L1 antibody alone or in combination in a functional immune response assay with different breast cancer cell lines.
(§2) Peripheral blood mononuclear cells (PBMCs) were isolated from whole blood using Ficoll Paque based density centrifugation.
(§3) SKBR3 (low in PD L1, denoted PD L1+) or HCC1954 (high in PD L1, denoted PD L1+++) cells were stained with 0.1 mM CFSE.
(§4) Effector cells (EC), i.e. PMMCs and target cells (TC), i.e. SKBR3 or HCC1954 cells, respectively, were brought to a concentration of 2×10^5 cells/ml.
(§5) Cells were treated with and without Foxy5 (100 μM), the cells were also treated with and without pembrolizumab […].
(§6) Cells were plated at EC:TC ratios of 1:1 (first bar), 5:1 (second bar) and 10:1 (third bar) along with basal cell death controls and total cell death controls. Once plated, cells were spun down and incubated for 12 hours. After 12 hours cells were re suspended with 5 μg/ml 7AAD. Cells were then analysed on the Guava flow cytometer.
(§7) Based on staining patterns live/dead cell and immune/cancer cell differentiation can be determined and the direct cytotoxicity in terms of the cell death percentage was calculated.
Direct cytotoxicity elicited by PBMCs against the SKBR3 cell line in the presence of FOXY-5 and/or pembrolizumab relative to vehicle control. […]

[2] = tested on: HCC1954 cells; experiment: Functional immune response assay: PBMC cytotoxicity against HCC1954 cells; format: cell-based
Method: as §1, §2, §3, §4, §5, §6, §7
Direct cytotoxicity elicited by PBMCs against the HCC1954 cell line in the presence of FOXY-5 and/or pembrolizumab relative to vehicle control. […]

Pembrolizumab
trastuzumab mediated ADCC ([1]; EC:TC 10:1 and 5:1 ratios): decreased
direct PBMC cytotoxicity ([1]; EC:TC 10:1 ratio): increased
direct PBMC cytotoxicity ([2]; HCC1954 (PD L1 high), relative to vehicle control, EC:TC 5:1 and 10:1 ratios): increased
direct cytotoxicity ([2]; HCC1954, pembrolizumab added to Foxy-5 vs. single agent, ratios 1:1 and 10:1): increased
